Data on two molecules can be found in patent US20190136246A1 (CSIR, published 2019).

One assay concerns the target T1, BTV-8 VP3 (SEQ ID NO:1) (Bluetongue virus serotype 8, UniProt P12435 1-901).
T1 sequence: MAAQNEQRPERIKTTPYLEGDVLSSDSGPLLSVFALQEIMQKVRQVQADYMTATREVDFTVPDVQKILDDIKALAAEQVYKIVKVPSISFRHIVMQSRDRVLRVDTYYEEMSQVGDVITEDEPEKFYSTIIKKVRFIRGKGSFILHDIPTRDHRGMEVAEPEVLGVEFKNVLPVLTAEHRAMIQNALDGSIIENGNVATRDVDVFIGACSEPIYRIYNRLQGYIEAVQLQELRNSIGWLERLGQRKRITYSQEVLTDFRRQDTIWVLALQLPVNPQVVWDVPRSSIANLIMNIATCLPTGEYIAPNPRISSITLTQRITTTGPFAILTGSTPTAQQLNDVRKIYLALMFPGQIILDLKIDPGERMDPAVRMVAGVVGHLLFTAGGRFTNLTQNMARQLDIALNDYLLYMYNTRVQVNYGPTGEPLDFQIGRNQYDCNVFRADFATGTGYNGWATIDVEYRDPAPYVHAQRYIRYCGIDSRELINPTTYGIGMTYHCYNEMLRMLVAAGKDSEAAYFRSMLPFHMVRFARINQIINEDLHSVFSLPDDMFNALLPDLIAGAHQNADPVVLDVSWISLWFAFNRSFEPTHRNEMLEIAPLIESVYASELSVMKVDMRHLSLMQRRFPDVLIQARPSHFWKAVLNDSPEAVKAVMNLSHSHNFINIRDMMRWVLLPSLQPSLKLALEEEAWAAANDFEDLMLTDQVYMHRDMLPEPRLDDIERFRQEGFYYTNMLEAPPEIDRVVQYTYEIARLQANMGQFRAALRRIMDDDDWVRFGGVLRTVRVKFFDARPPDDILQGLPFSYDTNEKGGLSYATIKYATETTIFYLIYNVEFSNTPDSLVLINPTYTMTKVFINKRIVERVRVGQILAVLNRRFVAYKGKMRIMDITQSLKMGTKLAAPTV
Put plainly: particle assembly on co-expression in N. benthamiana; iodixanol gradient, TEM.

For a further assay, the target named is T2, BTV-8 VP7 (SEQ ID NO:6) (Bluetongue virus serotype 8, UniProt P69361 1-349).
T2 sequence: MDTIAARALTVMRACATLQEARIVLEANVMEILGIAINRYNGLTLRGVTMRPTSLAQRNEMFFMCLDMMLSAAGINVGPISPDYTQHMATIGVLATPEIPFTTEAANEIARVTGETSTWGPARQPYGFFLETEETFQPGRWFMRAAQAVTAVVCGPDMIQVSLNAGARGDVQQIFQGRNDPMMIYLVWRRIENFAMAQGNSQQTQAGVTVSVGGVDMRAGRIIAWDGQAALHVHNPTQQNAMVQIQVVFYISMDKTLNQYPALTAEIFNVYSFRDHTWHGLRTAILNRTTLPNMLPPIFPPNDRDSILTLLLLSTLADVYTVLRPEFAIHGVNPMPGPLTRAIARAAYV
Nature of the assay: CLP assembly on co-expression; sucrose gradient, TEM (FIG. 13).

B1: BTV-8 VP7 (SEQ ID NO:5) (other)
chain: MDTIAARALTVMRACATLQEARIVLEANVMEILGIAINRYNGLTLRGVTMRPTSLAQRNEMFFMCLDMMLSAAGINVGPISPDYTQHMATIGVLATPEIPFTTEAANEIARVTGETSTWGPARQPYGFFLETEETFQPGRWFMRAAQAVTAVVCGPDMIQVSLNAGARGDVQQIFQGRNDPMMIYLVWRRIENFAMAQGNSQQTQAGVTVSVGGVDMRAGRIIAWDGQAALHVHNPTQQNAMVQIQVVFYISMDKTLNQYPALTAEIFNVYSFRDHTWHGLRTAILNRTTLPNMLPPIFPPNDRDSILTLLLLSTLADVYTVLRPEFAIHGVNPMPGPLTRAIARAAYV
As to B1, the binding result with BTV-8 VP3 (SEQ ID NO:1) is on record as “binds”.

B2: BTV-8 VP3 (SEQ ID NO:2) (other)
chain: MAAQNEQRPERIKTTPYLEGDVLSSDSGPLLSVFALQEIMQKVRQVQADYMTATREVDFTVPDVQKILDDIKALAAEQVYKIVKVPSISFRHIVMQSRDRVLRVDTYYEEMSQVGDVITEDEPEKFYSTIIKKVRFIRGKGSFILHDIPTRDHRGMEVAEPEVLGVEFKNVLPVLTAEHRAMIQNALDGSIIENGNVATRDVDVFIGACSEPIYRIYNRLQGYIEAVQLQELRNSIGWLERLGQRKRITYSQEVLTDFRRQDTIWVLALQLPVNPQVVWDVPRSSIANLIMNIATCLPTGEYIAPNPRISSITLTQRITTTGPFAILTGSTPTAQQLNDVRKIYLALMFPGQIILDLKIDPGERMDPAVRMVAGVVGHLLFTAGGRFTNLTQNMARQLDIALNDYLLYMYNTRVQVNYGPTGEPLDFQIGRNQYDCNVFRADFATGTGYNGWATIDVEYRDPAPYVHAQRYIRYCGIDSRELINPTTYGIGMTYHCYNEMLRMLVAAGKDSEAAYFRSMLPFHMVRFARINQIINEDLHSVFSLPDDVFNALLPDLIAGAHQNADPVVLDVSWISLWFAFNRSFEPTHRNEMLEIAPLIESVYASELSVMKVDMRHLSLMQRRFPDVLIQARPSHFWKAVLNDSPEAVKAVMNLSHSHNFINIRDMMRWVLLPSLQPSLKLALEEEAWAAANDFEDLMLTDQVYMHRDMLPEPRLDDIERFRQEGFYYTNMLEAPPEIDRVVQYTYEIARLQANMGQFRAALRRIMDDDDWVRFGGVLRTVRVKFFDARPPDDILQGLPFSYDTNEKGGLSYATIKYATETTIFYLIYNVEFSNTPDSLVLINPTYTMTKVFINKRIVERVRVGQILAVLNRRFVAYKGKMRIMDITQSLKMGTKLAAPTV
Turning to B2, in the assay with BTV-8 VP7 (SEQ ID NO:6), the binding result was “binds”.
